First the molecules themselves.
B1: GST-fused full length ARL-13 (FL) (natural protein, C. elegans, UniProt H2L0N8-2 1-367, looked up)
chain: MTEKSWFETIFCCCCHRTPIIRREIKLGCFGIGSAGKTTFLKVLKGEDPRDLLRTNGFSTVKMEYDETFHLTIYDVGGDKGIRGIWSNYYAEVHGIIYVIDYSTDETFTESIEALHSLTSNPHVQKKPIFLLLNNQNNREFDDVEISNETKIQAGQHKIVLFSHFNKYNGYLDNIKSATLTVMARAKKDRNEYQEQFVRFIDSISEHYVELSEGVKTAELALRIRQEEAKEQRRLMQMKVEHDALKADVAGLELRNQPPVQPPIPPDPPSDPKSASVHIEESPPMSLASSTIPSDIIQSTPETGTPRDPVKISQTSTKPVSPESNSVKEEPTIILKDNYFLPPKAPGRQYSRIQRIQNVLNNRVVPK
B2: His-tagged ARL-3 (natural protein, C. elegans, UniProt O45379 1-184, looked up)
chain: MGLIDVLKSFKSPSGREIRILLLGLDNAGKTTILKQLSSEDVQHVTPTKGFNVKTVAAMGDIRLNVWDIGGQRSIRPYWSNYYENIDTLIFVIDSNDKKRFDEMNIELGELLDEEKLRKVPVLIFANKQDLVTAASSEEITRKLNLDLLRDRTWHIQACSALKNEGINDGITWVASNLKPASKK
notes: ARL-3, small GTPase of C. elegans, wild type; the methods speak of full-length and/or truncated cDNAs, and no truncation of ARL-3 is named; also called His-ARL-3; source: E. coli BL21, purified (His resin); not shown: His, N-terminal, kept
B3: ARL-3 dominant active (DA, Q72L) variant, recombinant (natural protein, C. elegans, UniProt O45379 1-184, looked up)
chain: B2 chain with Q72L
notes: ARL-3, C. elegans, dominant active variant Q72L; also called ARL-3 DA; source: E. coli BL21, purified (His resin or glutathione sepharose)
B4: ARL-3 dominant negative (DN, T31N) variant, recombinant (natural protein, C. elegans, UniProt O45379 1-184, looked up)
chain: B2 chain with T31N
notes: ARL-3, C. elegans, dominant negative variant T31N; also called ARL-3 DN; ARL-3DN (T31N); source: E. coli BL21, purified (His resin or glutathione sepharose)

The target of the experiment “His-tagged ARL-3” is B2. As to the kind of experiment: cell-based or functional assay.
The target of experiment [1] is T1, UNC-119, recombinant, as used in the GST pull-downs with ARL-3 and its variants (C. elegans, UniProt Q10658 1-219).
T1 construct: if it carried the His tag it is the same construct as m6 and ARL-3 was GST-fused; source: E. coli BL21, purified (His resin or glutathione sepharose)
As to the kind of experiment: pull-down; GST pull-down: His-tagged protein incubated with GST-tagged protein immobilised on glutathione sepharose; 25 mM Tris-HCl pH 7.4, 150 mM NaCl, 0.5% Triton X-100, 1 mM DTT, 10% glycerol, 4 hours at 4 °C; six washes; anti-His immunoblot. The settings on record: both partners purified. (A western blot detects proteins with antibodies after separation by electrophoresis.)

The values that follow come from PMC4840320 (Scientific Reports, 2016).

Numbering of substitutions follows the chain as printed. Numbers in names are those of the source.

T1 sequence (Q10658 whole entry, change not shown, the tested form may be a part): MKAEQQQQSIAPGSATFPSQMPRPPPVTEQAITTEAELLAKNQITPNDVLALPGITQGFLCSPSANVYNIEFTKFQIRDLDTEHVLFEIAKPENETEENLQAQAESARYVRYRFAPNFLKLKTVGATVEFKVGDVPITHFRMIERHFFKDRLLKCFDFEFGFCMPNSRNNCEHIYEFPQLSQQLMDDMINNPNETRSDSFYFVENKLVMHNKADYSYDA

Turning to B1, the “mantGDP release from GDP-preloaded ARL-3 (in vitro GEF assay), ARL-13 from one-tenth molar (~2 fold) to a 1:1 molar ratio” value with His-tagged ARL-3 is roughly 7 fold.

For the molecule B2, the binding result in experiment [1] is “binds”.

For B3, the binding result in experiment [1] is given as “binds”.

Turning to B4, the binding result in experiment [1] is on record as “binds”.
